system: Escherichia coli TOP10; test: shrunken log2 fold change of peptide-encoding DNA abundance (4.5 h post-induction vs induction); higher = less antimicrobial activity (less host growth inhibition); conditions: time post-induction: 4.5 h; library: site-saturation at positions 5, 18, 19, 20
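Further: peptides expressed intracellularly from a pBAD plasmid library in pooled LB shake-flask culture, induced with 0.3% L-arabinose, DNA abundance read by NGS, three biological replicates, DESeq2 with apeglm shrinkage.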

| Sequence | shrunken log2 fold change |
| --- | --- |
| RRIRPRPPRLPRPRPRPCSYPRP | -0.858 |
| RRIRIRPPRLPRPRPRPWPMPRP | 0.0828 |
| RRIRTRPPRLPRPRPRPSTQPRP | -0.0187 |
| RRIRHRPPRLPRPRPRPAFVPRP | 0.113 |
| RRIRYRPPRLPRPRPRPECGPRP | -0.114 |
| RRIRTRPPRLPRPRPRPWLLPRP | -0.186 |
| RRIRSRPPRLPRPRPRPTRRPRP | 0.109 |
| RRIRSRPPRLPRPRPRPLPFPRP | -0.588 |
| RRIRQRPPRLPRPRPRPAMHPRP | -0.125 |
| RRIRIRPPRLPRPRPRPPRTPRP | 0.195 |
| RRIRCRPPRLPRPRPRPNGNPRP | -0.288 |
| RRIRIRPPRLPRPRPRPKTWPRP | -0.258 |
| RRIRHRPPRLPRPRPRPVHQPRP | 0.0507 |
| RRIRDRPPRLPRPRPRPVHRPRP | 0.0594 |
| RRIRPRPPRLPRPRPRPLPHPRP | -0.206 |
| RRIRQRPPRLPRPRPRPRFFPRP | 0.0926 |
| RRIRSRPPRLPRPRPRPHFFPRP | -0.0717 |
| RRIRWRPPRLPRPRPRPNHKPRP | -0.37 |
| RRIRLRPPRLPRPRPRPYMLPRP | -1.2 |
| RRIRIRPPRLPRPRPRPKICPRP | -0.883 |

| Sequence | shrunken log2 fold change |
| --- | --- |
| RRIRFRPPRLPRPRPRPVCDPRP | -0.255 |
| RRIRKRPPRLPRPRPRPILKPRP | 0.117 |
| RRIRSRPPRLPRPRPRPPAQPRP | 0.922 |
| RRIRLRPPRLPRPRPRPGNGPRP | 0.0164 |
| RRIRFRPPRLPRPRPRPNENPRP | 0.00257 |
| RRIRHRPPRLPRPRPRPDVCPRP | -0.258 |
| RRIRKRPPRLPRPRPRPYTVPRP | -0.0362 |
| RRIRARPPRLPRPRPRPNPNPRP | 0.187 |
| RRIRDRPPRLPRPRPRPYRHPRP | -0.0137 |
| RRIRYRPPRLPRPRPRPKSFPRP | -0.0139 |
| RRIRYRPPRLPRPRPRPWQSPRP | -0.121 |
| RRIRNRPPRLPRPRPRPKCWPRP | 0.173 |
| RRIRRRPPRLPRPRPRPCMMPRP | -0.292 |
| RRIRVRPPRLPRPRPRPGMCPRP | 0.00908 |
| RRIRWRPPRLPRPRPRPADIPRP | 0.0169 |
| RRIRARPPRLPRPRPRPEQDPRP | 0.805 |
| RRIRCRPPRLPRPRPRPAFNPRP | -0.23 |
| RRIRLRPPRLPRPRPRPRQMPRP | 0.208 |
| RRIRARPPRLPRPRPRPGWKPRP | 0.167 |
| RRIRCRPPRLPRPRPRPDNSPRP | -0.53 |

| Sequence | shrunken log2 fold change |
| --- | --- |
| RRIRGRPPRLPRPRPRPNNEPRP | 0.306 |
| RRIRGRPPRLPRPRPRPSVGPRP | 0.333 |
| RRIRARPPRLPRPRPRPHYKPRP | -0.424 |
| RRIRVRPPRLPRPRPRPHLLPRP | -0.272 |
| RRIRNRPPRLPRPRPRPVYTPRP | -0.361 |
| RRIRNRPPRLPRPRPRPLRLPRP | 0.357 |
| RRIRPRPPRLPRPRPRPPAHPRP | 0.466 |
| RRIRTRPPRLPRPRPRPCKNPRP | -0.33 |
| RRIRERPPRLPRPRPRPSTPPRP | -0.28 |
| RRIRMRPPRLPRPRPRPVQEPRP | 0.051 |
| RRIRARPPRLPRPRPRPGFIPRP | -0.339 |
| RRIRCRPPRLPRPRPRPQGMPRP | 0.00583 |
| RRIRTRPPRLPRPRPRPKWSPRP | -0.227 |
| RRIRNRPPRLPRPRPRPSKMPRP | -0.22 |
| RRIRERPPRLPRPRPRPMYTPRP | -0.469 |
| RRIRPRPPRLPRPRPRPLMMPRP | -0.204 |
| RRIRFRPPRLPRPRPRPKGIPRP | -0.0392 |
| RRIRKRPPRLPRPRPRPNMNPRP | 0.394 |
| RRIRTRPPRLPRPRPRPWCYPRP | -0.291 |
| RRIRSRPPRLPRPRPRPRLLPRP | 0.229 |

Reference: the supplement of paper PMC9112550, “Optimization of the antimicrobial peptide Bac7 by deep mutational scanning” (BMC Biology, 2022)
